Results from patent publication US20080286310A1.

Target: Translocated intimin receptor Tir of EHEC O157:H7 (enterohemorrhagic Escherichia coli O157:H7) (UniProt Q7DB77)
Test: cell-based or functional assay

UniProt Q7DB77, sequence (Q7DB77 whole entry): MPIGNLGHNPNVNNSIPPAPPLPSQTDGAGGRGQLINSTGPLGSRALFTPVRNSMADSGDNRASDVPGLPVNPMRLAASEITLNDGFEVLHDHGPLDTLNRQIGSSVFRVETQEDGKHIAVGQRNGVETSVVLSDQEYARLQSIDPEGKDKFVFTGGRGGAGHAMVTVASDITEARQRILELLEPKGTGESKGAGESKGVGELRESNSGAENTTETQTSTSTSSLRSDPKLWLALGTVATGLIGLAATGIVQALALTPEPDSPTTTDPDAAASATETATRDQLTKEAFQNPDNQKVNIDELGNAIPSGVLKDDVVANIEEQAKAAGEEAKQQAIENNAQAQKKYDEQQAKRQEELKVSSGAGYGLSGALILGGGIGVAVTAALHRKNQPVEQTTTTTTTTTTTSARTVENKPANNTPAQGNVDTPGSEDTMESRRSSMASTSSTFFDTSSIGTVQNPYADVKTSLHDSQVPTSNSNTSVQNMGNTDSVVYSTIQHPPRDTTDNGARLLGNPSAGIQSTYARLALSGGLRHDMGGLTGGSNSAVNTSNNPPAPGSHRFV

Substance: Native intimin of EHEC O157:H7 strain 86-24 (from UniProt P43261 40-934)
- microcolonies on HeLa cells (percent of cells): 47%
